Source: patent US7479482B2 (priority 2001, dated 2009)
Where two headings read alike, the source gives them in different places.

Columns and labels:
[1] = format: physicochemical
[2] = system: Tg2576 mice; details: mouse, in vivo
[3] = system: human neuroblastoma cell line (SK-N-SH)

Q: With “Aβ1-42: amyloid β peptide 1-42, control peptide and comparison immunogen” as the substance, how does the “alpha (secondary structure by CD)” value ([1]; Time 0 hr) read?
A: 9%

Q: What about the “beta-sheet (secondary structure by CD)” value ([1]; Time 0 hr) of the same substance?
A: 36%

Q: What about the “random (secondary structure by CD)” value ([1]; Time 0 hr) of the same substance?
A: 55%

Q: What about the “alpha (secondary structure by CD)” value ([1]; Time 24 hr) of the same substance?
A: 9%

Q: What about the “beta-sheet (secondary structure by CD)” value ([1]; Time 24 hr) of the same substance?
A: 40%

Q: And the “random (secondary structure by CD)” value ([1]; Time 24 hr)?
A: 51%

Q: And the “alpha (secondary structure by CD)” value ([1]; Time 96 hr)?
A: 5%

Q: What about the “beta-sheet (secondary structure by CD)” value ([1]; Time 96 hr) of the same substance?
A: 55%

Q: What about the “random (secondary structure by CD)” value ([1]; Time 96 hr) of the same substance?
A: 40%

Q: What about the “radial arm maze skills” value [2] of the same substance?
A: had the radial arm maze skills of the positive control

Q: What about the “aggregates visible under the microscope in culture wells” value [3] of the same substance?
A: aggregates were visible

Q: And the “toxicity to neuroblastoma cells (MTT)” value [3]?
A: toxic
